Results as given in patent US8313778B2, “Drug-delivery systems” (Evonik Roehm GmbH, priority 2005, dated 2012).
carboxyfluorescein = carboxyfluorescein label (N-terminal); fluorescein = fluorescein label

How the values were obtained:
HeLa cells [1] = assay type: cell-based, human; details: flow cytometry (FIG. 5)
Method: Cells and reagents: The human HeLa carcinoma cells used are derived from the American Type Culture Collection (Manassas, Va., USA). HeLa cells were cultured in RPMI 1640 medium with stabilized glutamine and 2.0 g/l NaHCO3 (PAN Biotech, Aidenbach, Germany) and with 10% foetal calf serum (PAN Biotech). Chlorbromazine was purchased from (Calbiochem (Bad Soden, Germany), 5-(N-ethyl-N-isopropyl)amiloride (EIPA), methyl-β-cyclodextrin (MβCD) and MTT [3-(4,5-dimethylthiazol-2-yl)-2,5-diphenyltetrazolium bromide] was purchased from Sigma (Deisenhofen, Germany).
Peptides: The peptides used were synthesized by EMC microcollections (Tübingen, Germany). The purity of all the peptides was checked by analytical HPLC. […]
Stock solution of the peptides: The peptides were taken up in DMSO to result in a 10 mM solution. […] This took place by UV/VIS spectrometry with a 1:100 dilution of the stock solution with 0.1M Tris/HCl buffer (pH 8.8), the absorption at 492 nm was measured, and carboxyfluorescein was assumed to have an extinction coefficient of 75 000 l/(mol·cm). […]
The peptides derived from human or bovine lactoferrin were prepared by solid-phase peptide synthesis. […] In order to determine whether the derived lactoferrin peptides have an activity as cell-penetrating peptides, the cell-associated fluorescence of the HeLa cells incubated with bLF peptides or hLF peptides was determined by flow cytometry. […]

HeLa cells [2] = assay: Cytotoxicity of hLF peptide, MTT test; assay type: cell-based, human; details: for ability of the cells to survive (MTT test): HeLa cells
Method: However, relatively short incubation times of less than one hour were used when observing peptide uptake in live cells. In addition, therefore, the effect of longer incubation times and higher concentrations of the peptides on the ability of the cells to survive was tested. HeLa cells were for this purpose incubated with hLF peptide at a concentration of 1.25 μM to 160 μm for 0.5 or 6 h. The vitality of the cells was then determined with an MTT test.

Substance	uptake relative to the amount taken up of hLF peptide (HeLa cells [1])	cytotoxic effects (MTT test) (HeLa cells [2]; HeLa cells incubated for only 30 min, up to a concentration of 40 μM (FIG. 6))	ability of the cells to survive (MTT test) (HeLa cells [2]; concentrations above 40 μM (FIG. 6))	ability of the cells to survive (MTT test) (HeLa cells [2]; peptide concentration of 5 μM, after 6 h (FIG. 6))
Fluo-FQWQRNMRKVR-CONH2 (fluorescein-FQWQRNMRKVR-NH2; listed as Homo sapiens) [LF2]	one-tenth			
Fluo-FQWQRNMRKVRGPPVS-CONH2 (fluorescein-FQWQRNMRKVRGPPVS-NH2; listed as Homo sapiens) [LF1]	one-tenth			
Fluo-KCFQWQRNMRKVRGPPVSCIKR-CONH2 (carboxyfluorescein-KCFQWQRNMRKVRGPPVSCIKR-NH2; cysteine pairing not given here; listed as Homo sapiens) [hLF peptide]		No cytotoxic effects	killed	slightly reduced
